From patent publication US20210002358A1 (Janssen / Centocor, published 2021)

Target: T1, soluble tau (control tau, recombinant 2N4R tau, SEQ ID NO: 31) (human, UniProt P10636 2-758)
T1 construct: also called Sol-tau; recombinant WT tau
Assay: direct ELISA on 2N4R Tau coated at 1 ng/mL
Method: Binding to recombinant WT (2N4R; SEQ ID NO:31) tau was analyzed by ELISA where full-length Tau protein (1 ng/mL or 10 ng/mL) was directly coated to the plate and incubated with different concentrations of either recombinantly- or hybridoma produced PT82 antibody (FIG. 2). After incubation with antibodies, plates were again washed and 50 μL per well of HRPO labelled anti-mouse antibody (GE Healthcare) (diluted 1:10000 in blocking buffer) was added. After another washing step detection was performed with “One step” TMB (Thermo Scientific) according to the manufacturers' instructions. Plates were analysed in EnVision® 2102 Multilabel Reader (Perkin Elmer, Waltham, Mass., USA). Binding curves were generated using GraphPad Prism7.0 software. […] No substantial difference has been observed between binding profiles of recombinant and hybridoma produced antibodies.

T1 sequence (P10636 other isoform, or with tags, fused parts or gaps limits assumed): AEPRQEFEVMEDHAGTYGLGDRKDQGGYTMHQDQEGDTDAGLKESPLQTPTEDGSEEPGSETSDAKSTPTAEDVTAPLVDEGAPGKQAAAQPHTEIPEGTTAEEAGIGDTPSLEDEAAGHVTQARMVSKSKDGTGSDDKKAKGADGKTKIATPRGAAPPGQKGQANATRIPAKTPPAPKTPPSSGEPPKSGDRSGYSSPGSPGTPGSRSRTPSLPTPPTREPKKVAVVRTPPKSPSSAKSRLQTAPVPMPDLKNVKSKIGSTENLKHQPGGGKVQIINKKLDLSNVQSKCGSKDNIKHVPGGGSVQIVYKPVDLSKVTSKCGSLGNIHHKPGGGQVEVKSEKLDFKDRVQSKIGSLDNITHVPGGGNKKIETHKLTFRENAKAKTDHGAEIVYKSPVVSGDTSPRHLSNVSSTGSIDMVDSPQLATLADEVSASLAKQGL

B1: PT82 mAb (recombinantly expressed, mouse IgG2a/kappa) (antibody, V domains shown)
VH: EVKLEESGGGLVQPGGSMKLSCVASGFTFSNYWMNWIRQSPEKGLEWVAQIRLQSDNYATRYAESVKGRFTISRDESKTSVYLQMNNLRTEDTGIYYCTGGTTYWGQGTLVTVSA
VL: DIVMTQSQKFMSTSVGDRVSITCKASQNVGTAVAWYQQKPGQSPKLLIYSASIRYTGVPDRFTGSGSGTDFTLTINYMQSEDLADYFCQQFSSYPYTFGGGTKLEIK
notes: also called recombinant PT82; mouse PT82
  EC50 (read off the curve): ~0.04 µg/mL
